{"source": "patent US11898183B2", "about": "“Programmed microorganisms to attenuate a disease” (priority 2020, dated 2024)", "system": "pathway specific substrates", "test": "Enzyme functionality of pathway enzyme homologs and fusion constructs in lysed E. coli cell extracts, product by HPLC", "format": "biochemical, E. coli BL21", "settings": "recombinant E. coli BL21 clone, lysed cell extract", "outline": "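Enzymes and fusion constructs were expressed in E. coli BL21 (pET28, T7 promoter) with 0.1 mM IPTG at 30 °C for ~20 h in M9 medium. Cleared freeze-thaw lysates were incubated with pathway-specific substrates. Products were quantified by HPLC relative to empty-plasmid lysates.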", "data": [{"molecule": "Caffeoyl CoA O-methyltransferase (CCoAOMT) (SEQ ID NO: 18) Chamaecyparis formosensis (protein, Depicts the amino acid sequence of Caffeoyl CoA O-methyltransferase (CCoAOMT) of Chamaecyparis formosensis) MATVEATKDSTQQVSRHQEVGHKSLLQSDALYQYILETSVYPREPEPMRELREITAKHPWNLMTTSADEGQFLHLLLKLINAKNTMEIGVYTGYSLLSTALALPDDGKILAMDINRENYELGLPVIQKAGVAHKIDFREGPALPVLDQMLENKEMHGSFDFIFVDADKDNYLNYHKRLIDLVKIGGVIGYDNTLWNGSVVAPPDAPMRKYVRYYRDFVIELNKALAADPRIEISQIPVGDGITLCRRII", "values": [{"measurement": "Enzyme activity in terms of product formation (in %)", "setting": "substrate tested: Caffeoyl coA", "result": 95, "unit": "%"}]}, {"molecule": "Caffeoyl CoA O-methyltransferase (CCoAOMT) (SEQ ID NO: 16) Eleocharis dulcis (protein, Depicts the amino acid sequence of enzyme Caffeoyl CoA O-methyltransferase (CCoAOMT)) MSTTTTTQTKTETQSQTGAQNGAEQQTRHSEVGHKSLLQSDALYQYILETSVYPREPECMKELRDITAKHPWNLMTTSADEGQFLNLLLKLIGAKKTMEIGVYTGYSLLATALAIPEDGTILAMDINRENYELGLPVIEKAGVAHKIDFREGPALPVLDQLIEDPANLGSFDFIFVDADKDNYLNYHKRLIELVKVGGVIGYDNTLWNGSVVLPADAPMRKYIRYYRDFVLELNKALAADPRIEISQLPVGDGITLCRRVK", "values": [{"measurement": "Enzyme activity in terms of product formation (in %)", "setting": "substrate tested: Caffeoyl coA", "result": 61, "unit": "%"}]}, {"molecule": "CYP719 (SEQ ID NO: 26) Cinnamomum micranthum (protein, Depicts the amino acid sequence of CYP719 of Cinnamomum micranthum) MEAIWTAVAIGIAAAVLMAFRGRQRQRLSRKPTQWPPGPTRLPLIGNMHQILLKGGDPFHVAINKLAQVYGPLMTVWFGTRQPTIIVSDHNLVWEVLVSKSADYAAREIPITLKPSLADFRTIVSSNAGPLWHSLRRGLQNGAIGPHSLSLQAPFQESDMAQMINNMIKEANLNGGVVKPFPHIRRAIIKLLARICFGCDFSDEEFDATMDFMVEEALRYSDDSRILDTFPPARFLPSVKRAVMQMEKVKLRLMECIGRPLDSPLPPTCYAHFLLSQSFPREVAIFSIFELFLLGVDSTGSTTMWGLGLLMQNQEAQQKLYQEIREHASCNEKGVVKVEELGKLEYLQAVAKETMRMKPIAPLAVPHQAARDTTLDGLHVAEGTTVLANLYALHYDPKVWDEPERFKPERFLESSKEFLGKRGQYSFLPFGAGMRACAGMEVGKLQLPFAICNLVNAFNWSNVVEKEAPKLIEGFSFILSMKTPLEARIVPRGI", "values": [{"measurement": "Enzyme activity in terms of product formation (in %)", "setting": "substrate tested: Matairesinol", "result": 97, "unit": "%"}]}, {"molecule": "CYP719 Coptis japonica (protein, UniProt Q948Y1 1-491, looked up) (S)-canadine synthase: MEMNPLLVCATVAIVFATTTIIRILFSSSSLPQMKWPSGPRKLPIIGNLHQLGDDVLHVALAKLAKVHGSVMTIWIGSWRPVIVISDIEKAWEVLVNKSADYGARDMPEITKIASASWHTISTSDAGSFWQNVRKGLQSGAMGPLNVAAQNQYQERDMKRLIKAMSDEAANNNGIVKPLDHIKKNTVRLLTRLIFGQAFDDNKFIESMHYEIEDIIRISGYARLAEAFYYAKYLPSHKKAEREAFLVKCRVEELVRPLLSSKPPTNSYLYFLLSQNFEEEVIIFCIFELYLLGVDSTSSTTTWALAYLIREQGAQEKLYQDIRMTLGDVDLVKIEDVNKLKYLQGVVKETMRMKPIAPLAIPHKTAKETTLMGTKVAKGTRIMVNLYALHHNQNIWPDPYKFMPERFLEGETGTAYNKAMEQSFLPFSAGMRICAGMDLGKLQFAFALANLVNAFKWSCVEEGKLPDMGEELSFVLLMKTPLEARIAGRNV", "values": [{"measurement": "Enzyme activity in terms of product formation (in %)", "setting": "substrate tested: Matairesinol", "result": 0, "unit": "%"}]}, {"molecule": "Bifunctional pinoresinol-lariciresinol reductase (DIRPLR) (SEQ ID NO: 20) Linum usitatissimum (protein, listed as Linum usitatissimum) MGRCRVLVVGGTGYIGKRIVKASIEHGHDTYVLKRPETGLDIEKFQLLLSFKKQGAHLVEASFSDHESLVRAVKLVDVVICTVSGAHSRSLLLQLKLVEAIKEAGNVKRFIPSEFGMDPARMGDALEPGRETFDLKMVVRKAIEDANIPHTYISANCFGGYFVGNLSQLGPLTPPSDKVTIYGDGNVKVVYMDEDDVATYTIMTIEDDRTLNKTMYFRPPENVITHRQLVETWEKLSGNQLQKTELSSQDFLALMEGKDVAEQIVIGHLYHIYYEGCLTNFDIDADQDQVEASSLYPEVEYTRMKDYLMIYL", "values": [{"measurement": "Enzyme activity in terms of product formation (in %)", "setting": "substrate tested: Coniferyl alcohol", "result": 98, "unit": "%"}]}, {"molecule": "CYP71 (SEQ ID NO: 32) Cinnamomum micranthum (protein, Depicts the amino sequence of CYP71 of Cinnamomum micranthum) MALLLSLLFFASALIFLLKLNGQRANKTDVPPSPPKLPLIGNLHQLGTLPHRSLRSLAGKYGPLMLLYLGRIPTLIVSSEEMAEQIMKTHDLIFASRPSITAAKELLYGCTDLAFASYGEYWRQVRKMCVLELLSIKRVNSFRSIMEEEVGLMIERISQSSSTGAAVNLAELFLSLTGGTIARAALGKKYEGEAEEGRNKYADLVKELHALLGAFSVGDYFPSLAWVDVVTGLHGKLKRNSRELDRFLDQVIEHHLMRPLDGCDVGEHTDLVDVMLQVQKDSNRDIHLTRDNIKAIILDMFSAGTDTTALTLEWVMAELAKHPNVMKKAQGEVRRVVDVKANISEEHLCQLNYMKSIIKETLRLHPPAPLLVPRESTTNVKIQNFHIPPKTRVFINAYAIGRDPTSWENPEEFLPERFANNSVDFKGQDFQFIPFGAGRRGCPGLSFAITSLELALANLLYWFDWELPQGVTEEDLDMSEALGITVHKKLPLYLVPKNHFS", "values": [{"measurement": "Enzyme activity in terms of product formation (in %)", "setting": "substrate tested: Bursehernin", "result": 94, "unit": "%"}]}, {"molecule": "CYP719 (SEQ ID NO: 24) Papaver somniferum (protein, listed as Papaver somniferum) MIMSNLWILTLISTILAVFAAVLIIFRRRISASTTEWPVGPKTLPIIGNLHILGGTALHVVLHKLAEVYGSVMTIWIGSWKPVIIVSDFDRAWEVLVNKSSDYSAREMPEITKIGTANWRTISSSDSGPFWATLRKGLQSVALSPQHLASQTAHQERDIIKLIKNLKDEAASGMVKPLDHLKKATVRLISRLIYGQDFDDDKYVEDMHDVIEFLIRISGYAQLAEVFYYAKYLPGHKRAVTGAEEAKRRVIALVRPFLQSNPATNTYLHFLKSQLYPEEVIIFAIFEAYLLGVDSTSSTTAWALAFLIREPSVQEKLYQELKNFTANNNRTMLKVEDVNKLPYLQAVVKETMRMKPIAPLAIPHKACKDTSLMGKKVDKGTKVMVNIHALHHTEKVWKEPYKFIPERFLQKHDKAMEQSLLPFSAGMRICAGMELGKLQFSFSLANLVNAFKWSCVSDGVLPDMSDLLGFVLFMKTPLEARIVPRL", "values": [{"measurement": "Enzyme activity in terms of product formation (in %)", "setting": "substrate tested: Matairesinol", "result": 76, "unit": "%"}]}, {"molecule": "O-methyltransferase 3 (OMT) (SEQ ID NO: 30) Sinopodophyllum hexandrum (protein, Depcits amino acid sequence of O-methyltransferase 3 (OMT) of Sinopodophyllum hexandrum) MEMAPTMDLEIRNGNGYGDSGEELLAAQAHIYNHIFNFISSMALKCAVELNIPEILHNHQPKAVTLSELVQALQIPQAKSACLYRLLRILVHSGFFAITKIQSEGDEEGYLPTLSSKLLLKNHPMSMSPCLLGLVNPTMVAPMHFFSDWFKRSDDMTPFEATHGASLWKYFGETPHMAEIFNEAMGCETRLAMSVVLKECKGKLEGISSLVDVGGGTGNVGRAIAEAFPNVKCTVLDLPQVVGNLKGSNNLEFVSGDMFQFIPPADVVFLKWILHDWNDEECIKILKRCKEAIPSKEEGGKLIIIDMVVNDHNKGSYESTETQLFYDLTLMALLTGTERTETEWKKLFVAAGFTSYIISPVLGLKSIIEVFP", "values": [{"measurement": "Enzyme activity in terms of product formation (in %)", "setting": "substrate tested: Pluviatolide", "result": 99, "unit": "%"}]}, {"molecule": "Secoisolariciresinol dehydrogenase (SDH) (SEQ ID NO: 22) Juglans regia (protein, listed as Juglans regia) MNGTSSLLAPIAKRLAGKVALITGGASGIGESTARLFAEQGAKVIIADVQDELGFSVSQDKSINGAISYIHCDVTSESDVQNAVNTAVSKHGKLDIMFNTAGCTGQNKASILDHEQKDYKTVFDVNVLGSFLGAKHAAKVMIPVKRGTILFTASCVTESHGLASHSYTASKHAVVGLTKNLCVELGQYGIRVNCISPYGAATPLFLKGMGIDKKEKAEEILSSAANLKGPVLEAGDLAEAALFLASEESKYVSVLNLVVDGGYSATNVAFTETIQKFFT", "values": [{"measurement": "Enzyme activity in terms of product formation (in %)", "setting": "substrate tested: Secoisolariciresinol", "result": 99, "unit": "%"}]}, {"molecule": "O-methyltransferase 3 (OMT) (SEQ ID NO: 28) Papaver somniferum (protein, listed as Papaver somniferum) MEVVSKIDQENQAKIWKQIFGFAESLVLKCAVQLEIAETLHNNVKPMSLSELASKLPAQPVNEDRLYRILHFLVHMKLFNKDATTQKYSLAPPAKYLLKGWEKSMVPSILSVTDKDFTAPWNHLGDGLTGNCNAFEKALGKGIRVYMRENPEKDQLFNEGMACDTRLFASALVNECKSIFSDGINTLAGVGRGTGTAVKAISKAFPDIKCTIHDLPEVTSKNSKIPRDVFKSVPSADAIFMKSILHEWNDEECIQILKRCKEAIPKGGKVIIADVVIDMDSTHPYSKSRLAMDLAMMLHTGGKERTEEDWKKLIDAAGFASCKITKLSALQSVIEAYPH", "values": [{"measurement": "Enzyme activity in terms of product formation (in %)", "setting": "substrate tested: Pluviatolide", "result": 88, "unit": "%"}]}]}
